Assay results taken from patent publication US6673915.

Target: human CCR2b with the FLAG epitope at the extreme amino-terminus, stably expressed on HEK-293 cells (Example 10B) (human), P41597
Test: cell-based or functional assay

Chain of human CCR2b with the FLAG epitope at the extreme amino-terminus, stably expressed on HEK-293 cells (Example 10B) (human), P41597 (P41597 whole entry): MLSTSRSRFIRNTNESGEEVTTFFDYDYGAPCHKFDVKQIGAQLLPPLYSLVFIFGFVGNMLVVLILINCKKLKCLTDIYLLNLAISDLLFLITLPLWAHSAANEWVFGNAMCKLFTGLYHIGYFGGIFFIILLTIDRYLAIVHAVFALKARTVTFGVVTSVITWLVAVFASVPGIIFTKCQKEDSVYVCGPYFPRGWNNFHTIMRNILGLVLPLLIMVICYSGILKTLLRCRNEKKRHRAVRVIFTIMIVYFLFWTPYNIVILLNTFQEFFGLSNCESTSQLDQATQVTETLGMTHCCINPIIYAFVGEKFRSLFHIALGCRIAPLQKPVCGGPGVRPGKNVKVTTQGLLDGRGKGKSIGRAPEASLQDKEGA

- EC50 of intracellular calcium flux: 5 nM
B1: murine MCP-5, predicted mature 82 amino acid protein beginning with the N-terminal glycine (E. coli, PeproTech), Q62401 23-104 (ligand)
chain: GPDAVSTPVTCCYNVVKQKIHVRKLKSYRRITSSQCPREAVIFRTILDKEICADPKEKWVKNSINHLDKTSQTFILEPSCLG
